{"source": "paper PMC4082471", "about": "(ChemMedChem, 2014)", "key": {"[1]": {"experiment": "Solubility in aqueous buffer by 1H NMR", "assay_type": "physicochemical", "conditions": "for solubility compared to that of PTX alone: qualitative"}, "[2]": {"experiment": "Stability in aqueous buffer and organic solvents by NMR", "assay_type": "physicochemical"}, "[3]": {"conditions": "heparinized rat plasma, 400 μM compound, 37 °C, 1D 1H NMR 600 MHz"}, "[4]": {"conditions": "literature value, ref not given; cited from earlier work"}}, "data": [{"compound": "DYPSMAMYSPSV [DYP-L2-PTX]", "values": [{"measurement": "solubility compared to that of PTX alone", "setting": "[1]", "value": "increased solubility"}]}, {"compound": "YSAYPDSVPMMS [YSA-L2-PTX]", "values": [{"measurement": "solubility compared to that of PTX alone", "setting": "[1]", "value": "increased solubility"}]}, {"compound": "YSAYPDSVPMMS [YSA-L1-PTX]", "values": [{"measurement": "stability in organic solvents", "setting": "[2]; DMSO or methanol", "value": "very stable"}, {"measurement": "time within which degradation of the linker in buffer is observed", "setting": "[2]; aqueous buffer", "value": "≤ 10", "unit": "min"}]}, {"compound": "ySAYPDSVP(L-Norleucine)(L-Homoserine)S [dYNH-L2-PTX]", "values": [{"measurement": "solubility compared to that of PTX alone", "setting": "[1]", "value": "increased solubility"}, {"measurement": "degradation after 8 hours incubation with plasma", "setting": "[3]", "value": "d-Tyr1 does not appear to be degraded"}]}, {"compound": "CC(=O)O[C@H]1C(=O)[C@@]2(C)[C@H]([C@H](OC(=O)c3ccccc3)[C@]3(O)C[C@H](OC(=O)[C@H](O)[C@@H](NC(=O)c4ccccc4)c4ccccc4)C(C)=C1C3(C)C)[C@]1(OC(C)=O)CO[C@@H]1C[C@@H]2O", "note": "[PTX, paclitaxel]", "values": [{"measurement": "aqueous solubility", "setting": "[4]", "value": "< 10", "unit": "µg/mL"}, {"measurement": "log P", "setting": "[4]", "value": 3.96}, {"measurement": "solubility in aqueous buffer", "setting": "[1]; assessed from 1H NMR spectra in aqueous buffer", "value": "below 10 μM"}]}]}
